Laboratory results: paper PMC2173577

Target: Grb2, endogenous in Cos-7 cells (African green monkey (endogenous in Cos-7))
Assay: co-IP

fold excess of the Sos-1–Grb2 complex over the Sos-1–E3b1 complex (co-IP): 10 fold
Substance: Sos-1, endogenous in Cos-7 cells (natural protein)
